Measured values as given in patent US11306156.
Values belong to the substance of their own block, whether it stands above or below them.

Assays:
[1] = target: tissue factor (TF) antigen (UniProt P13726); test: SPR (ProteOn XPR36), Fab captured by His tag on anti-penta-His surface, TF injected as analyte, 1:1 fit; batch C (+)
[2] = target: tissue factor (TF) antigen (UniProt P13726); test: SPR (ProteOn XPR36), Fab captured by His tag on anti-penta-His surface, TF injected as analyte; against wild-type D3H44 Fab; batch C (+)
[3] = target: tissue factor (TF) antigen (human (from the antibody's name 'anti-human tissue factor'; not stated for the antigen lot in the assay)) (UniProt P13726); test: SPR (ProteOn XPR36): Fab captured via His tag on anti-penta His surface, TF injected, 1:1 fit
[4] = target: tissue factor (TF) antigen (human (from the antibody's name 'anti-human tissue factor'; not stated for the antigen lot in the assay)) (UniProt P13726); test: SPR (ProteOn XPR36), Fab captured on anti-penta His, TF analyte; against wild-type D3H44 Fab
[5] = target: tissue factor (TF) antigen (UniProt P13726); test: SPR (ProteOn), Fab captured via anti-penta-His, TF injected, 1:1 fit; batch C (+)
[6] = target: tissue factor (TF) antigen (UniProt P13726); test: SPR (ProteOn), Fab captured via anti-penta-His, TF injected, 1:1 fit; reference wild-type D3H44 Fab; batch C (+)
[7] = target: D3H44 light chain Q124K_V133G_S176R_T178K (Kabat), N-terminal HA or FLAG tag; test: LCCA co-expression, competing light chain m23, L1:L2 DNA 1:3 normalized to 1:1, SPR tag read-out
[8] = target: D3H44 light chain Q124K_V133G_S176R_T178K (Kabat), N-terminal HA or FLAG tag; test: LCCA co-expression, competing light chain m26, L1:L2 DNA 1:3 normalized to 1:1, SPR tag read-out
[9] = target: D3H44 light chain V133G_S176D_T178D_T180E (Kabat), N-terminal HA or FLAG tag; test: LCCA co-expression, competing light chain m24, L1:L2 DNA 1:3 normalized to 1:1, SPR tag read-out
[10] = target: D3H44 light chain Q124E_V133G_S176D_T178E_T180E (Kabat), N-terminal HA or FLAG tag; test: as above
[11] = target: D3H44 light chain Q124K_V133G_S176R_T178K (Kabat), N-terminal HA or FLAG tag; test: LCCA co-expression, competing light chain m25, L1:L2 DNA 1:3 normalized to 1:1, SPR tag read-out
[12] = target: D3H44 light chain V133G_N137K_S174R_S176R (Kabat), N-terminal HA or FLAG tag; test: LCCA co-expression, competing light chain m30, L1:L2 DNA 1:3 normalized to 1:1, SPR tag read-out
[13] = target: tissue factor (TF) antigen (UniProt P13726); test: SPR (ProteOn XPR36), Fab captured on anti-penta His, TF injected at 0.74-60 nM, 1:1 model; median
[14] = target: D3H44 light chain S121K_V133G_N137K_S174R_S176R (Kabat), N-terminal HA or FLAG tag; test: LCCA co-expression, competing light chain m30, L1:L2 DNA 1:3 normalized to 1:1, SPR tag read-out
[15] = target: D3H44 light chain Q124E_T180E (Kabat), N-terminal HA or FLAG tag; test: LCCA co-expression, competing light chain m36, L1:L2 DNA 1:3 normalized to 1:1, SPR tag read-out
[16] = target: D3H44 light chain S131K (Kabat), N-terminal HA or FLAG tag; test: LCCA co-expression, competing light chain m37, L1:L2 DNA 1:9 normalized to 1:1, SPR tag read-out
[17] = target: D3H44 light chain S131K (Kabat), N-terminal HA or FLAG tag; test: LCCA co-expression, competing light chain m37, L1:L2 DNA 1:3 normalized to 1:1, SPR tag read-out
[18] = target: D3H44 light chain Q124E_T180E (Kabat), N-terminal HA or FLAG tag; test: LCCA co-expression, competing light chain m36, L1:L2 DNA 1:9 normalized to 1:1, SPR tag read-out
[19] = target: tissue factor (TF) antigen (UniProt P13726); test: SPR (ProteOn XPR36), Fab captured on anti-penta-His surface, TF as analyte, 1:1 fit; batch C (stored about 2 months at 4 C)
[20] = target: tissue factor (TF) antigen (UniProt P13726); test: SPR (ProteOn XPR36), Fab captured on anti-penta-His surface, TF as analyte; reference wild-type D3H44 Fab; batch C
[21] = target: D3H44 light chain T178R (Kabat) with N-terminal HA or FLAG tag; test: LCCA, SPR read-out of light-chain tags; light-chain DNA 1:3 normalized to 1:1; competing light chain m17
[22] = target: D3H44 light chain Q124K_T178R (Kabat) with N-terminal HA or FLAG tag; test: as above
[23] = target: D3H44 light chain Q124R_Q160K_T178R (Kabat) with N-terminal HA or FLAG tag; test: as above
[24] = target: D3H44 light chain Q124E_Q160E_T180E (Kabat) with N-terminal HA or FLAG tag; test: LCCA, SPR read-out of light-chain tags; light-chain DNA 1:3 normalized to 1:1; competing light chain m20
[25] = target: D3H44 light chain Q124E_S131T_T178F_T180E (Kabat) with N-terminal HA or FLAG tag; test: as above
[26] = target: D3H44 light chain T178R (Kabat) with N-terminal HA or FLAG tag; test: LCCA, SPR read-out of light-chain tags; light-chain DNA 1:3 normalized to 1:1; competing light chain m19
[27] = target: D3H44 light chain Q124E_Q160E_T180E (Kabat) with N-terminal HA or FLAG tag; test: LCCA, SPR read-out of light-chain tags; light-chain DNA 1:3 normalized to 1:1; competing light chain m18
[28] = target: D3H44 light chain Q124E_T180E (Kabat) with N-terminal HA or FLAG tag; test: as above
[29] = target: D3H44 light chain Q124E_Q160E_T180E (Kabat) with N-terminal HA or FLAG tag; test: LCCA, SPR read-out of light-chain tags; light-chain DNA 1:3 normalized to 1:1; competing light chain m16
[30] = target: D3H44 light chain Q124R_Q160K_T178R (Kabat) with N-terminal HA or FLAG tag; test: LCCA, SPR read-out of light-chain tags; light-chain DNA 1:3 normalized to 1:1; competing light chain m22

Substance: D3H44 Fab heterodimer, H1 A139C_L143E_K145T_Q179E / L1 F116C_Q124R_T178R (H1L1 Fab of LCCA set 9049)
Kd [3]: 0.16 nM | Change in median values of KD of h1l1 Fab heterodimer compared to wild type (-(log(KD design)-log(KD wt))) [4]: -0.01

Substance: D3H44 H1L1 Fab heterodimer of LCCA Set # 9648 (H1 L143E_K145T_Q179E, L1 Q124K_T178R)
Kd [1]: 0.14 nM | change in median KD compared to wild type, -(log(KD design)-log(KD wt)) [2]: 0.05 log

Substance: D3H44 Fab heterodimer (H1L1) of LCCA Sets # 9979, 9983: H1 Q179K, L1 S131E
Kd [5]: 0.14 nM | change in median KD compared to wild type, -(log(KD design)-log(KD wt)) [6]: 0.05

Substance: D3H44 Fab heavy chain L124E_L143E_K145T (Kabat), C-terminal ABD2-His6 tag
H1L1:H1L2 normalized median ratio [7]: 89 of 100 | H1L1:H1L2 normalized median scalar value ln(r1/f1) [7]: 2.08 | H1L1:H1L2 normalized median ratio [8]: 62 of 100 | H1L1:H1L2 normalized median scalar value ln(r1/f1) [8]: 0.43 | H1L1:H1L2 normalized median ratio [9]: 38 of 100

Substance: D3H44 Fab heavy chain L124R_D146N_Q179K (Kabat), C-terminal ABD2-His6 tag
H2L2:H2L1 normalized median ratio [10]: 84 of 100 | H2L2:H2L1 normalized median ratio [11]: 16 of 100

Substance: wild-type D3H44 Fab heterodimer where the light chain contains a FLAG tag
Kd [13]: 0.157 nM

Substance: D3H44 Fab heavy chain L124E_L143D_K145T (Kabat), C-terminal ABD2-His6 tag
H1L1:H1L2 normalized median ratio [7]: 81 of 100 | H1L1:H1L2 normalized median scalar value ln(r1/f1) [7]: 1.44 | H1L1:H1L2 normalized median ratio [10]: 21 of 100 | H1L1:H1L2 normalized median ratio [11]: 79 of 100 | H1L1:H1L2 normalized median scalar value ln(r1/f1) [11]: 1.31

Substance: D3H44 Fab heavy chain L124R_S186K (Kabat), C-terminal ABD2-His6 tag
H2L2:H2L1 normalized median ratio [7]: 24 of 100 | H2L2:H2L1 normalized median ratio [8]: 7 of 100 | H2L2:H2L1 normalized median ratio [9]: 93 of 100

Substance: D3H44 Fab heavy chain L124E_L143D_K145M (Kabat), C-terminal ABD2-His6 tag
H1L1:H1L2 normalized median ratio [10]: 17 of 100 | H1L1:H1L2 normalized median ratio [11]: 83 of 100 | H1L1:H1L2 normalized median scalar value ln(r1/f1) [11]: 1.59

Substance: D3H44 Fab heterodimer H1 S188L_V190Y / L1 V133S
Kd [19]: 0.1 nM | Change in median values of KD of h1l1 Fab heterodimer compared to wild type (-(log(KD design)-log(KD wt))) [20]: 0.2

Substance: D3H44 Fab heavy chain S186K (Kabat) with C-terminal ABD2-His6 tag
H2L2:H2L1 normalized median ratio [21]: 9% | H2L2:H2L1 normalized median ratio [22]: 17% | H2L2:H2L1 normalized median ratio [23]: 19% | H2L2:H2L1 normalized median ratio [24]: 81% | H2L2:H2L1 normalized median ratio [25]: 96% | H2L2:H2L1 normalized median ratio [26]: 4% | H2L2:H2L1 normalized median ratio [27]: 91% | H2L2:H2L1 normalized median ratio [28]: 96% | H2L2:H2L1 normalized median ratio [29]: 83% | H2L2:H2L1 normalized median ratio [30]: 4%

Substance: D3H44 Fab heterodimer H1 S186K / L1 S131E
Kd [19]: 0.14 nM | Change in median values of KD of h1l1 Fab heterodimer compared to wild type (-(log(KD design)-log(KD wt))) [20]: 0.05

Substance: D3H44 Fab heavy chain L124E_L143E_K145M (Kabat), C-terminal ABD2-His6 tag
H1L1:H1L2 normalized median ratio [7]: 88 of 100 | H1L1:H1L2 normalized median scalar value ln(r1/f1) [7]: 1.95 | H1L1:H1L2 normalized median ratio [8]: 63 of 100 | H1L1:H1L2 normalized median scalar value ln(r1/f1) [8]: 0.55 | H1L1:H1L2 normalized median ratio [9]: 37 of 100

More lines, now with the values ahead:

Kd [1]: 0.14 nM | change in median KD compared to wild type, -(log(KD design)-log(KD wt)) [2]: 0.05 log
Substance: D3H44 H1L1 Fab heterodimer of LCCA Set # 9982 (H1 S186K, L1 S131E)

Kd [5]: 0.15 nM | change in median KD compared to wild type, -(log(KD design)-log(KD wt)) [6]: 0.02
Substance: D3H44 Fab heterodimer (H1L1) of LCCA Set # 9851: H1 S186K, L1 Q124E_T178E_T180E

H2L2:H2L1 normalized median ratio [12]: 8 of 100
Substance: D3H44 Fab heavy chain L124R_H172R (Kabat), C-terminal ABD2-His6 tag

H1L1:H1L2 normalized median ratio [14]: 27 of 100 | H1L1:H1L2 normalized median scalar value ln(r1/f1) [14]: -0.97
Substance: D3H44 Fab heavy chain L124E_A125S_H172T_K228D (Kabat), C-terminal ABD2-His6 tag

H1L1:H1L2 normalized median ratio [15]: 58 of 100 | H1L1:H1L2 normalized median ratio [16]: 75 of 100 | H1L1:H1L2 normalized median scalar value ln(r1/f1) [16]: 1.1 | H1L1:H1L2 normalized median ratio [17]: 42 of 100 | H1L1:H1L2 normalized median scalar value ln(r1/f1) [17]: -0.34 | H1L1:H1L2 normalized median ratio [18]: 25 of 100
Substance: D3H44 Fab heavy chain K145T_Q179E (Kabat), C-terminal ABD2-His6 tag

Kd [1]: 0.14 nM | change in median KD compared to wild type, -(log(KD design)-log(KD wt)) [2]: 0.06 log
Substance: D3H44 H1L1 Fab heterodimer of LCCA Sets # 9888 and 9887 (H1 S186R, L1 Q124E_T178E)

H2L2:H2L1 normalized median ratio [14]: 5 of 100
Substance: D3H44 Fab heavy chain L124R_A125R_H172R (Kabat), C-terminal ABD2-His6 tag

H1L1:H1L2 normalized median ratio [12]: 53 of 100 | H1L1:H1L2 normalized median scalar value ln(r1/f1) [12]: 0.12
Substance: D3H44 Fab heavy chain L124E_H172T (Kabat), C-terminal ABD2-His6 tag

H2L2:H2L1 normalized median ratio [15]: 98 of 100 | H2L2:H2L1 normalized median ratio [16]: 7 of 100 | H2L2:H2L1 normalized median ratio [17]: 2 of 100 | H2L2:H2L1 normalized median ratio [18]: 93 of 100
Substance: D3H44 Fab heavy chain S186K (Kabat), C-terminal ABD2-His6 tag

Kd [3]: 0.2 nM | Change in median values of KD of h1l1 Fab heterodimer compared to wild type (-(log(KD design)-log(KD wt))) [4]: -0.12
Substance: D3H44 Fab heterodimer, H1 L124E_L143E_K145T / L1 Q124K_V133G_Q160K_S176R (H1L1 Fab of LCCA set 9277)

Kd [5]: 0.06 nM | change in median KD compared to wild type, -(log(KD design)-log(KD wt)) [6]: 0.41
Substance: D3H44 Fab heterodimer (H1L1) of LCCA Sets # 9829, 9830: H1 S186K, L1 Q124E_Q160E_T178E
